Measurements from article PMC11506546.
pKd: −log10 of the molar value.

Experiments:
[1] = molecular target: β-actin filament (cytoskeletal actin, polymerized from G-actin) (UniProt P60709); test: TIRF microscopy of tropomyosin-decorated single actin filaments; control experiments: the same Tpm isoform labeled with AF488 and with AF568 (0.015 µM of each) mixed with 1 µM G-actin in D buffer, polymerized with 50 mM NaCl for 5-10 min, 10% PEG 300; decorated filaments captured on PLL-PEG/BSA coverslips in microfluidic channels, washed with TIR50 buffer
[2] = molecular target: α-actin filament (muscle actin, polymerized from G-actin) (UniProt P68135); test: as above
[3] = molecular target: rabbit skeletal-muscle F-actin (rabbit) (UniProt P68135); test: co-sedimentation; 0.2-3.5 µM tropomyosin with 3 µM F-actin in T buffer (150 mM NaCl, 10 mM Tris-HCl pH 7.5, 2 mM MgCl2), 50 µL, 1 h at room temperature; 670,000 x g, 20 °C, 30 min; SDS-PAGE densitometry; Hill equation fit; apparent Kd

Sequence of Tpm1.6 (Tm2), unlabeled recombinant human cytoskeletal tropomyosin (natural protein; modification not given) (chain, as listed by the source): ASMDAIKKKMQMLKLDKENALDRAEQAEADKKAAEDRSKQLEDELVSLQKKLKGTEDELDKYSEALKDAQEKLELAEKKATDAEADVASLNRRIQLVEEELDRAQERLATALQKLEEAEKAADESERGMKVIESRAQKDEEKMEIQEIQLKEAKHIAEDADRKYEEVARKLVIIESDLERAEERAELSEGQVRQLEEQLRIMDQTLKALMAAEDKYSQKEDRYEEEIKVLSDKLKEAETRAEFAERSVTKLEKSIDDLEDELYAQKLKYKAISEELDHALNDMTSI

| ratio of Tpm in Ch1 (red, AF568)/Ch2 (green, AF488) on the filament, median [1] | ratio of Tpm in Ch1 (red, AF568)/Ch2 (green, AF488) on the filament, median [2] | pKd [3] | Substance |
| --- | --- | --- | --- |
| 0.9 | 0.9 | 6.62 | Tpm1.1 AF568 (Tpm1.1 labeled at Cys-190 with Alexa Fluor 568 C5 maleimide) (natural protein) |
|  |  | 6.77 | Tpm1.1 AF488 (Tpm1.1 labeled at Cys-190 with Alexa Fluor 488 C5 maleimide) (natural protein) |
|  |  | 6.19 | Tpm1.1 (αTm), unlabeled recombinant rat skeletal/cardiac muscle tropomyosin (natural protein) |
|  |  | 6.36 | Tpm1.6 (Tm2), unlabeled recombinant human cytoskeletal tropomyosin (natural protein; modification not given) |
